Values belong to the binder of their own block, whether it stands above or below them.
Columns and labels:
[1] = biological target: T1, human CTLA4-Fc (Fitzgerald #30R-CD152) (human, UniProt P16410 38-152, biotinylated in the inhibition ELISAs (sites not given)); experiment: SPR (Biacore); ratio [Kd for CD28] / [Kd for CTLA-4] compared with wild type
T1 construct: Bought reagent; Used plain (coated or immobilised) and biotinylated (in solution); also called biotinylated-CTLA4; human CTLA-4 (Fitzgerald); not shown: Fc of the bought fusion protein
T1 sequence: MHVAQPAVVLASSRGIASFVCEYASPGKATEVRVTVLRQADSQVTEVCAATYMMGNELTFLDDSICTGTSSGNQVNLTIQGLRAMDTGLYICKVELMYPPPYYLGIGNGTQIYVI
Experimental: (§1) The phage clones selected from Example 1 were re-cloned according to standard protocols into a fusion protein-format, with each clone fused to γ2/γ4 Fc. The fusion proteins were expressed in HEK293 cells. Supernatants culure of the cells were collected and the expressed fusion proteins were assayed using both ELISA and Biacore™ according to the methods set out below.
Either CTLA4-Fc (Fitzgerald #30R-CD152) or CD28-Fc (R&D systems 342-CD) was immobilized to the Biacore™ senshorship, CM5, using conventional amine coupling. The CD86 mutant molecules and controls (serially diluted ½ 100-1.5 nM) were analyzed for binding in HBs-P (GE, BR-1003-69) at a flow rate […]. The association was followed for 3 minutes and the dissociation for 10 minutes. Regeneration was performed twice using 5 mM NaOH for 30 seconds. The kinetic parameters and the affinity constants were calculated using BIAevaluation 4.1 software.

[2] = biological target: T1, human CTLA4-Fc (Fitzgerald #30R-CD152); experiment: ELISA; ratio [EC50 for CD28] / [EC50 for CTLA-4] compared with wild type
Experimental: as §1
(§2) 96-well flat bottom high binding plates (Greiner #655074) were coated with either CTLA4-Fc (Fitzgerald #30R-CD152) or CD28-Fc (R&D systems 342-CD) by incubating overnight at 4° C. The plates were washed (Wash buffer: PBS+0.05% Tween 20 (PBST) Medicago #09-9410-100) and then blocked in PBST+3% BSA (Merck, #1.12018.0100). The plates were washed again and sample or controls (serially diluted ⅕ from 200-0.001 μg/ml) were added to the wells. The samples were incubated for 1 h at room temperature and then washed. Detection antibody, goat-anti-human IgG Fcγ-HRP (Jackson, #109-035-098) was added and the plates were subsequently developed using SuperSignal Pico Chemiluminescent substrate (Thermo #37069) and detected with an Envision reader (Perkin Elmer). EC50 values were calculated for both CTLA4 and CD28. The binding ratio (EC50 binding ratio=[EC50 for CD28]÷[EC50 for CTLA-4]) was calculated for each polypeptide and is shown in Table 4.

[3] = biological target: T1, human CTLA4-Fc (Fitzgerald #30R-CD152); experiment: binding ELISA: CTLA4-Fc coated on the plate, sample serially diluted, detection with goat anti-human IgG Fcγ-HRP, chemiluminescence, data normalised to %
Experimental: as §2, with “Similar to the protocol described in Example 2, 96-well” for “96-well”, “(kindly provided by Simon Davis, Oxford University)” for “(R&D systems 342-CD)”, “⅓” for “⅕”, “50 000-0001 nM)” for “200-0.001 μg/ml)”, “Elmer).” for “Elmer). EC50 values were calculated for both CTLA4 and CD28. The binding ratio (EC50 binding ratio=[EC50 for CD28]÷[EC50 for CTLA-4]) was calculated for each polypeptide and is shown in Table 4.”
(§3) Binding to CD28 was too low for detection by this assay (data not shown).

[4] = biological target: T1, human CTLA4-Fc (Fitzgerald #30R-CD152); experiment: binding ELISA on coated CTLA4-Fc; against wild type and H79A; upper end tied to 1040 by Table 7
Experimental: as §2, with “Similar to the protocol described in Example 2, 96-well” for “96-well”, “(kindly provided by Simon Davis, Oxford University)” for “(R&D systems 342-CD)”, “⅓” for “⅕”, “50 000-0001 nM)” for “200-0.001 μg/ml)”, “Elmer).” for “Elmer). EC50 values were calculated for both CTLA4 and CD28. The binding ratio (EC50 binding ratio=[EC50 for CD28]÷[EC50 for CTLA-4]) was calculated for each polypeptide and is shown in Table 4.”
as §3

[5] = biological target: T1, human CTLA4-Fc (Fitzgerald #30R-CD152); experiment: binding ELISA on coated CTLA4-Fc; against wild type and H79A; lower end tied to 1042 by Table 7
Experimental: as §2, with “Similar to the protocol described in Example 2, 96-well” for “96-well”, “(kindly provided by Simon Davis, Oxford University)” for “(R&D systems 342-CD)”, “⅓” for “⅕”, “50 000-0001 nM)” for “200-0.001 μg/ml)”, “Elmer).” for “Elmer). EC50 values were calculated for both CTLA4 and CD28. The binding ratio (EC50 binding ratio=[EC50 for CD28]÷[EC50 for CTLA-4]) was calculated for each polypeptide and is shown in Table 4.”
as §3

B1: CD86 mutant clone 904 fused to γ2/γ4 Fc (Fc fusion)
chain: LKIQAYFNETADLPCQFANSQNQSLSELIVFWQDQENLVLNEVYLGKERFDAVDSKYMGRTSFDSDSWTLRLHNLQIKDKGIYQCIIHHKKPSGMVKIHQMDSELSVLA
notes: not shown: γ2/γ4 Fc
fold of Kd binding ratio over wild type CD86 [1]: > 4 times

B2: CD86 mutant clone 907 fused to γ2/γ4 Fc (Fc fusion)
chain: LKIQAYFNETADLPCQFANSQNQSLSELVVFWQDQENLVLNEVYLGKEKFDSVHSKYMGRTSFDSDSWTLRLHNLQIKDKGLYQCIIHHKKPTGMIKIHEMNSELSVLA
notes: not shown: γ2/γ4 Fc
fold of EC50 binding ratio over wild-type CD86 [2]: ~10 times

Other lines, results leading:

EC50 (read off the curve) [3]: ~8 ng/mL
fold improvement of EC50 [4]: 2 to 67 fold
B3: CD86 mutant clone 1040 expressed as a gamma2/gamma4 fusion (Fc fusion)
chain: APLKIQAYFNETADLPCQFANSQNLSLSELVVFWQDQENLVLNEVYLGKERFDSVDSKYMGRTSFDSDSWTLRLHNLQIKDKGRYQCIIHHKKPTGMINIHQMNSELSVLA
notes: Purified on protein A; not shown: gamma2/gamma4 Fc

fold improvement of EC50 [5]: 2 to 67 fold
B4: CD86 mutant clone 1042 expressed as a gamma2/gamma4 fusion (Fc fusion)
chain: APLKIQAYFNETADLPCQFANSQNLSLSELVVFWQDQENLVLNEVYLGKEIFDSVSSKYMGRTSFDSDSWTLRLHNLQIKDKGIYQCIIHHKKPSGMVKIHQMDSELSVLA
notes: as for B3
